Experimental data from paper PMC10495343 (2023).

Experiments:
[1] = biological target: T1, collagen-binding, serum albumin-fused IL-4 variant (CBD-SA-IL-4) (UniProt P04275); assay: ELISA
[2] = biological target: T1, collagen-binding, serum albumin-fused …; assay: SPR

Row | Kd [1] [pM] | koff [2] [s⁻¹] | Binder
1 | 118 |  | IL-4Rα-Fc (Fc fusion) IKVLGEPTCFSDYIRTSTCEWFLDSAVDCSSQLCLHYRLMFFEFSENLTCIPRNSASTVCVCHMEMNRPVQSDRYQMELWAEHRQLWQGSFSPSGNVKPLAPDNLTLHTNVSDEWLLTWNNLYPSNNLLYKDLISMVNISREDNPAEFIVYNVTYKEPRLSFPINILMSGVYYTARVRVRSQILTGTWSEWSPSITWYNHFQLPLIQR
2 |  | 0.0056 | collagen III (natural protein) QYDSYDVKSGVAVGGLAGYPGPAGPPGPPGPPGTSGHPGSPGSPGYQGPPGEPGQAGPSGPPGPPGAIGPSGPAGKDGESGRPGRPGERGLPGPPGIKGPAGIPGFPGMKGHRGFDGRNGEKGETGAPGLKGENGLPGENGAPGPMGPRGAPGERGRPGLPGAAGARGNDGARGSDGQPGPPGPPGTAGFPGSPGAKGEVGPAGSPGSNGAPGQRGEPGPQGHAGAQGPPGPPGINGSPGGKGEMGPAGIPGAPGLMGARGPPGPAGANGAPGLRGGAGEPGKNGAKGEPGPRGERGEAGIPGVPGAKGEDGKDGSPGEPGANGLPGAAGERGAPGFRGPAGPNGIPGEKGPAGERGAPGPAGPRGAAGEPGRDGVPGGPGMRGMPGSPGGPGSDGKPGPPGSQGESGRPGPPGPSGPRGQPGVMGFPGPKGNDGAPGKNGERGGPGGPGPQGPPGKNGETGPQGPPGPTGPGGDKGDTGPPGPQGLQGLPGTGGPPGENGKPGEPGPKGDAGAPGAPGGKGDAGAPGERGPPGLAGAPGLRGGAGPPGPEGGKGAAGPPGPPGAAGTPGLQGMPGERGGLGSPGPKGDKGEPGGPGADGVPGKDGPRGPTGPIGPPGPAGQPGDKGEGGAPGLPGIAGPRGSPGERGETGPPGPAGFPGAPGQNGEPGGKGERGAPGEKGEGGPPGVAGPPGGSGPAGPPGPQGVKGERGSPGGPGAAGFPGARGLPGPPGSNGNPGPPGPSGSPGKDGPPGPAGNTGAPGSPGVSGPKGDAGQPGEKGSPGAQGPPGAPGPLGIAGITGARGLAGPPGMPGPRGSPGPQGVKGESGKPGANGLSGERGPPGPQGLPGLAGTAGEPGRDGNPGSDGLPGRDGSPGGKGDRGENGSPGAPGAPGHPGPPGPVGPAGKSGDRGESGPAGPAGAPGPAGSRGAPGPQGPRGDKGETGERGAAGIKGHRGFPGNPGAPGSPGPAGQQGAIGSPGPAGPRGPVGPSGPPGKDGTSGHPGPIGPPGPRGNRGERGSEGSPGHPGQPGPPGPPGAPGPCCGGVGAAAIAGIGGEKAGGFAPYYG
